T1: PlGF-1 (Homo sapiens, UniProt P49763)
T1 sequence (P49763 19-149 isoform P49763-2 limits assumed): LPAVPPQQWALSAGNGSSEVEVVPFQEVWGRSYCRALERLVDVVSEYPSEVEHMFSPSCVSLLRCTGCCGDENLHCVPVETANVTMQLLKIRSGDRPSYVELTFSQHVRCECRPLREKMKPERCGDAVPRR

T2: PlGF-2 (Homo sapiens, UniProt P49763)
T2 sequence (P49763 19-170 isoform P49763-3 limits assumed): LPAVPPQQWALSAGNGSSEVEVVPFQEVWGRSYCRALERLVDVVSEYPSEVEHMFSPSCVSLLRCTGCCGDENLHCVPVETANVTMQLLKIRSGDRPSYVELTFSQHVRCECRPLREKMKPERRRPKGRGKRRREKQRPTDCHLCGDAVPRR

T3: VEGF-A121 (Homo sapiens, UniProt P15692)
T3 sequence (P15692 27-147 isoform P15692-9 limits assumed): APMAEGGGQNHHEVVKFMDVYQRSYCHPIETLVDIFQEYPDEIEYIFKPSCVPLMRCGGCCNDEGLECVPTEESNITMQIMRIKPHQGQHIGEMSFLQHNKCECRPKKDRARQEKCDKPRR

T4: VEGF-A165 (Homo sapiens, UniProt P15692)
T4 construct: All growth factors (GFs) and chemokines were purchased in their mature forms; purchased PeproTech; host or cells: Escherichia coli
T4 sequence (P15692 27-191 isoform P15692-4 limits assumed): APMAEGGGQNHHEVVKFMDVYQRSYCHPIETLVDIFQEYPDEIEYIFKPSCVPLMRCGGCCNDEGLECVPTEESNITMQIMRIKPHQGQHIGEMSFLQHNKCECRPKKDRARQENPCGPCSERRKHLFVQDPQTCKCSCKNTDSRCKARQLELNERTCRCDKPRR

B1: α4826-1816: laminin alpha 4 LG domain recombinant protein (R&D systems) (protein)
chain: QVSMMFDGQSAVEVHSRTSMDDLKAFTSLSLYMKPPVKRPELTETADQFILYLGSKNAKKEYMGLAIKNDNLVYVYNLGTKDVEIPLDSKPVSSWPAYFSIVKIERVGKHGKVFLTVPSLSSTAEEKFIKKGEFSGDDSLLDLDPEDTVFYVGGVPSNFKLPTSLNLPGFVGCLELATLNNDVISLYNFKHIYNMDPSTSVPCARDKLAFTQSRAASYFFDGSGYAVVRDITRRGKFGQVTRFDIEVRTPADNGLILLMVNGSMFFRLEMRNGYLHVFYDFGFSGGPVHLEDTLKKAQINDAKYHEISIIYHNDKKMILVVDRRHVKSMDNEKMKIPFTDIYIGGAPPEILQSRALRAHLPLDINFRGCMKGFQFQKKDFNLLEQTETLGVGYGCPEDSLISRRAYFNGQSFIASIQKISFFDGFEGGFNFRTLQPNGLLFYYASGSDVFSISLDNGTVIMDVKGIKVQSVDKQYNDGLSHFVISSVSPTRYELIVDKSRVGSKNPTKGKIEQTQASEKKFYFGGSPISAQYANFTGCISNAYFTRVDRDVEVEDFQRYTEKVHTSLYECPIESSPLFLLHKKGKNLSKPKASQNKKGGKSKDAPSWDPVALKLPERNTPRNSHCHLSNSPRAIEHAYQYGGTANSRQEFEHLKGDFGAKSQFSIRLRTRSSHGMIFYVSDQEENDFMTLFLAHGRLVYMFNVGHKKLKIRSQEKYNDGLWHDVIFIRERSSGRLVIDGLRVLEESLPPTEATWKIKGPIYLGGVAPGKAVKNVQINSIYSFSGCLSNLQLNGASITSASQTFSVTPCFEGPMETGTYFSTEGGYVVLDESFNIGLKFEIAFEVRPRSSSGTLVHGHSVNGEYLNVHMKNGQVIVKVNNGIRDFSTSVTPKQSLCDGRWHRITVIRDSNVVQLDVDSEVNHVVGPLNPKPIDHREPVFVGGVPESLLTPRLAPSKPFTGCIRHFVIDGHPVSFSKAALVSGAVSINSCPAA
B2: α53026-3482: laminin alpha 5 LG domain recombinant protein (LD BioPharma) (protein)
chain: AIQVFLLGGSRKRVLVRVERATVYSVEQDNDLELADAYYLGGVPPDQLPPSLRRLFPTGGSVRGCVKGIKALGKYVDLKRLNTTGVSAGCTADLLVGRAMTFHGHGFLRLALSNVAPLTGNVYSGFGFHSAQDSALLYYRASPDGLCQVSLQQGRVSLQLLRTEVKTQAGFADGAPHYVAFYSNATGVWLYVDDQLQQMKPHRGPPPELQPQPEGPPRLLLGGLPESGTIYNFSGCISNVFVQRLLGPQRVFDLQQNLGSVNVSTGCAPALQAQTPGLGPRGLQATARKASRRSRQPARHPACMLPPHLRTTRDSYQFGGSLSSHLEFVGILARHRNWPSLSMHVLPRSSRGLLLFTARLRPGSPSLALFLSNGHFVAQMEGLGTRLRAQSRQRSRPGRWHKVSVRWEKNRILLVTDGARAWSQEGPHRQHQGAEHPQPHTLFVGGLPASSHSSKLP

Columns and labels:
Assay in all cases: GF binding to recombinant laminin LG domain protein and synthesized laminin HBD peptides (ELISA)
Settings in all cases: plate coated with LG domain protein or peptide, 1 μg/mL GF, vs BSA-coated wells
PlGF-1 = biological target: T1, PlGF-1; parameters: All growth factors (GFs) and chemokines were purchased in their mature forms; purchased PeproTech; host or cells: Escherichia coli
Protocol: (§1) ELISA tests were performed as described above. In brief, ELISA plates were coated with 1 μg/mL of laminin alpha 3 LG domain recombinant protein, laminin alpha 4 LG domain recombinant protein (R&D systems), laminin alpha 5 LG domain recombinant protein (LD BioPharma), or laminin peptide (sequences are described in Table 1, chemically synthesized by Genscript) in PBS for 2 hrs at 37° C. 1 μg/mL of BSA served as non-binding protein control. After blocking with 2% BSA PBS-0.05% Tween 20 (PBS-T) solution, 1 μg/mL of the recombinant human proteins (VEGF-A121, VEGF-A165, PlGF-1, PlGF-2, PDGF-BB or FGF-2) or 10 μg/mL of biotinylated heparin (Sigma-Aldrich) were added. Bound GF was detected with biotinylated antibodies for human VEGF, PlGF, PDGF-BB, or FGF-2 (R&D Systems). The antibodies were detected by streptavidin-HRP (R&D Systems).

PlGF-2 = biological target: T2, PlGF-2; parameters: All growth factors (GFs) and chemokines were purchased in their mature forms; purchased PeproTech; host or cells: Escherichia coli
Protocol: as §1

VEGF-A121 = biological target: T3, VEGF-A121; parameters: All growth factors (GFs) and chemokines were purchased in their mature forms; purchased PeproTech; host or cells: Escherichia coli
Protocol: as §1

FGF-2 = FGF-2 (Homo sapiens, UniProt P09038); parameters: All growth factors (GFs) and chemokines were purchased in their mature forms; purchased PeproTech; host or cells: Escherichia coli
Chain of FGF-2 (P09038 143-288): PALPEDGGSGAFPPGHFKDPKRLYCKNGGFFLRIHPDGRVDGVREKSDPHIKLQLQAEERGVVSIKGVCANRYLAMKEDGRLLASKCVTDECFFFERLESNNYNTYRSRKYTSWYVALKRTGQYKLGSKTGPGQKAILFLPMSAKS
Protocol: as §1

VEGF-A165 = biological target: T4, VEGF-A165
Protocol: as §1

PDGF-BB = biological target: T5, PDGF-BB (Homo sapiens, UniProt P01127)
T5 construct: All growth factors (GFs) and chemokines were purchased in their mature forms; purchased PeproTech; host or cells: Escherichia coli
T5 sequence (P01127 82-190 limits assumed): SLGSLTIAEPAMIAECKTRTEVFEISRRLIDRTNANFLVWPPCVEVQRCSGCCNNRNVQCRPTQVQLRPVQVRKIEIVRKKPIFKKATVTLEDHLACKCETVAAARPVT
Protocol: as §1

| Molecule | binding to PlGF-1 (PlGF-1) | binding to PlGF-2 (PlGF-2) | binding to VEGF-A121 (VEGF-A121) | binding to FGF-2 (FGF-2) | binding to VEGF-A165 (VEGF-A165) | binding to PDGF-BB (PDGF-BB) |
| --- | --- | --- | --- | --- | --- | --- |
| B1 | did not show any binding | bound | did not show any binding | bound | bound | bound |
| B2 | did not show any binding | bound | did not show any binding | bound | bound | bound |
